Reference: the DeepSol protein solubility set

Assay: soluble on expression in E. coli; label from the status in PepcDB or PDB records
With “ELYGASPDIDLGTGPTPTLGPVTPEICKQDIVFDGIAQIRGEIFFFKDRFIWRTVTPRDKPMGPLLVATFWPELPEKIDAVYEAPQEEKAVFFAGNEYWIYSASTLERGYPKPLTSLGLPPDVQRVDAAFNWSKNKKTYIFAGDKFWRYNEVKKKMDPGFPKLIADAWNAIPDNLDAVVDLQGGGHSYFFKGAYYLKLENQSLKSVKFGSIKSDWLGC” the “soluble on expression in E. coli” value was “soluble”.
For “EMDRRAALSGAAGAFMAACDEAVRELLLAMNFSDHDAEAIITGAAPPQLEHAASGVVSLVLRLKSSVLSHYIKHLNNAAARSQAAAASTAAVDGNAEDAADKHGAKATSAAKAPPAAGGGAGDAADQQLSTGEACLVQLQLYGGVGDALLQLLRSKLRGSACQLWALAHIVHPHPSRSEKESLAAYTGKSTKQVTDWFTNWRARHWRPAIMALQKGAAGGAAGGSLG”, the “soluble on expression in E. coli” value was “soluble”.
With “EMGTADLGPSSVPTPTNVTIESYNMNPIVYWEYQIMPQVPVFTVEVKNYGVKNSEWIDACINISHHYCNISDHVGDPSNSLWVRVKARVGQKESAYAKSEEFAVCRDGKIGPPKLDIRKEEKQIMIDIFHPSVFVNGDEQEVDYDPETTCYIRVYNVYVRMNGSEIQYKILTQKEDDCDEIQCQLAIPVSSLNSQYCVSAEGVLHVWGVTTEKSKEVCITIFNSSIKGSLWIPVVAALLLFLVLS” the “soluble on expression in E. coli” value was “soluble”.
With “EMTDLQSTHKNFLFEIEEVGIKNLTYPVLIDQYQTAGLFSFSTSLNKNEKGINMSRILESVEKHYDNGIELEFNTLHQLLRTLQDKMNQNAAGVDVSGKWFFDRYSPVTNIKAVGHADVTYGLAIENHTVTRKELTIQAKVTTLCPCSKEISEYSAHNQRGIVTVKAYLDKNNDVIDDYKDKILDAMEANASSILYPILKRPDEKRVTERAYENPRFVEDLIRLIAADLVEFDWIEGFDIECRNEESIHQHDAFARLKYRK” the “soluble on expression in E. coli” value was “not soluble”.
For “EMYHHKKVLVLGLARSGVSAATIMHKLGAFVTVNDQKPFSENPEAQGLLEQGIKVICGSHPIELLDEGFELVIKNPGIPYNNPMIEKALKLKIPVI”, the “soluble on expression in E. coli” value was “not soluble”.
In the case of “EPEEEQITVLENGSWLIDGDTPVNKLKYVLSVDSFPGEEQGYYLTIAGLIMYILQRIPKTGDHMEFNGLRYEVVDMDGIRIDKVMVTKVP”, the “soluble on expression in E. coli” value is reported as “soluble”.
With “EPIVTVYVAYGGLDLIAEEFEKDTGIKMEYVSLSSGEALSRLKAEQSNPSADVWLGGGIDAFISAQNDGLLEAYKSPNAEEIDPLFVEENGYWIGVSLVTIGILENTDLMTEKGLPEPETWDDLITEDYSGELIASNPTVSGTAYFTICGILQMNGEEEGWNYLDKFYQNTPFLTKRGSGPGNLVTAGEYAYGVAPDPHTTLIANSELPVKSVFLDNVIWWPSPVSIVNGAKHPENAKIFVDWCLSKEGQEVLMQASPRVPVRGDI” the “soluble on expression in E. coli” value was “not soluble”.
With “EQALSDQLRFVEALTDCMPPPLYVRDVNGRMLSCNRSYLQSVGLSSEEVMNRTVLELPMENFETAPEFHRSYLMAMREGRTIEAVYPVALGGRERWIDHWIQPFRDSSGTIRGVICGWLDITEHRQLIDELEEAKNLADEASRAKTTFLATMSHEIRTPMNAVIGILELALKRAETGRVDRSSIEIAYASAKSLLELIGDILDIARIESGRLSLSPKRANLRELVESVARVFEGLARQKRLSLVLEIDSSINGDVLLDAMRFKQILSNLVSNAIKFTDEGSIRIRIDGRQVEPSLLQVNLCVEDTGIGISLGDQQQLFRPFAQVNRNLQNTEGTGLGLVISRSLCEMMGGRLVMSSELGQGTRIDVELRLQVLEPIVENVRAIPLGSRQARRLQVLVVDDHAVNRQILHQQLSFLGHDVEEAENGLSALNLWHGQPFDMVITDCHMPLMSGSDLARSIRQEERENGEEPVVIIGLTADAQPEEIERCIQAGMNECLIKPIGLDVLEERLLALGFAADELPVTIDAEPVAIPTAPRLYDLDSLHALTGGEPTMLRRLLDELLTSNRKDLETLEGLVQRQETGELAELAHRIKGAARVVRGEQLVESCRRLEDACLSPNASFAWVEECAVGVKLAILALDESLVEEC” the “soluble on expression in E. coli” value was “not soluble”.
With “EQVVARKKLEESESRFRALVNASSDVVYRMNADWTVMRELEGRDFLTPAGTAMADWVETYTYREDRALVKATAAAAIEGKRIFELEHRVLKADGTIGWTFSRAIPILDEQGNIIEWFGSAADIT” the “soluble on expression in E. coli” value was “not soluble”.
In the case of “EREEEPAVQGNPDESLTVEGALEYVELAPQLNLPQQEEDADFHTVAGLIMEELQTIPDVGDFADFHGWRFEVVEKEGQRIERVKITKLP”, the “soluble on expression in E. coli” value is reported as “soluble”.
